Experimental data reported in patent publication US20220110851A1 (SKINMED, published 2022).
No end group written: not given here.

target: acetylcholine receptor on AchR-overexpressed TE671 cells; assay: cell-based or functional assay

Binder	AchR inhibition, TE671 cells, 400 µM nicotine	AchR inhibitory rate, TE671 cells, 400 µM nicotine, 20 µM peptide	IC50 value for AchR (AchR inhibitory effect in TE671 cells)	AchR inhibitory effect, Fura-2 fluorescence in TE671 cells after 1 µM acetylcholine	inhibitory ability on nicotinic acetylcholine receptors, in multiples compared with Spep-2
WTWKGRKSLLR [Spep-2]	100%	~10%	750 nM	–	–
WTWKGRKSLLR (also: palmitoyl conjugated, site not given here) [Palmitoyl-Spep-2]	–	–	75 nM	–	–
WTWKGNKQVKF [Spep-10]	–	–	–	47%	–
RARKKRKSLLRRQV [L3-27]	100%	~100%	–	–	8 times
SNVKRKRGRCKPYR [L3-37]	–	~100%	–	–	32 times
RFRRGVRR [L1-13]	–	~100%	–	–	–
PNGKVRKRIRRRYF [L3-28]	100%	~100%	–	–	16 times
WTWKGRDKLQM [Spep-4]	–	–	–	17%	–
RYAKHRKRQTR [L2-110]	100%	~100%	–	–	8 times
